This is an account of results in PMC10997623, “Cryo-EM structures of prokaryotic ligand-gated ion channel GLIC provide insights into gating in a lipid environment” (Nature Communications, 2024).

This data set deals with the molecule itself. Nature of the data set: cryo-EM structure; GLIC in MSP1E3D1 lipid nanodiscs (asolectin at pH 7.5; DOPE:POPS:POPC 2:1:1 at pH 7.5, 5.5, 4.0 and 2.5), 150 mM NaCl, 1 mM EDTA; seven maps at 2.6-3.4 Å; homopentamer.

B1: GLIC, proton-activated prokaryotic ligand-gated ion channel from Gloeobacter violaceus (natural protein)
chain: QDMVSPPPPIADEPLTVNTGIYLIECYSLDDKAETFKVNAFLSLSWKDRRLAFDPVRSGVRVKTYEPEAIWIPEIRFVNVENARDADVVDISVSPDGTVQYLERFSARVLSPLDFRRYPFDSQTLHIYLIVRSVDTRNIVLAVDLEKVGKNDDVFLTGWDIESFTAVVKPANFALEDRLESKLDYQLRISRQYFSYIPNIILPMLFILFISWTAFWSTSYEANVTLVVSTLIAHIAFNILVETNLPKTPYMTYTGAIIFMIYLFYFVAVIEVTVQHYLKVESQPARAASITRASRIAFPVVFLLANIILAFLFFGF
notes: GLIC, Gloeobacter violaceus ligand-gated ion channel; expressed as a GLIC-MBP fusion from pET26, MBP removed with HRV-3C protease; Homopentamer; also called GLIC_(aso-pH7.5); GLIC_(pH7.5); source: E. coli C41, purified (DDM, amylose resin, SEC), reconstituted in lipid nanodiscs with MSP1E3D1
In the case of B1, the stoichiometry N (as a rule, a count of units in the complex or per binding partner) stood at 5.
